# Values joined by “and” are separate entries in the source; they are usually repeats but may differ in a detail not shown here. Identical values can stand only once. Ends that are not written are not given here.
# B1: VmFtsN^1-29-C-Atto 495 (peptide)
# chain: MANRDYVRRGKGTSRRPAKKKTSGKKPWRC
# modifications: Atto 495 (maleimide) on the added C-terminal cysteine
# B2: E. coli FtsA residues 1-405 (EcFtsA^1-405) (domain or fragment, UniProt P0ABH0 1-405, looked up)
# chain: MIKATDRKLVVGLEIGTAKVAALVGEVLPDGMVNIIGVGSCPSRGMDKGGVNDLESVVKCVQRAIDQAELMADCQISSVYLALSGKHISCQNEIGMVPISEEEVTQEDVENVVHTAKSVRVRDEHRVLHVIPQEYAIDYQEGIKNPVGLSGVRMQAKVHLITCHNDMAKNIVKAVERCGLKVDQLIFAGLASSYSVLTEDERELGVCVVDIGGGTMDIAVYTGGALRHTKVIPYAGNVVTSDIAYAFGTPPSDAEAIKVRHGCALGSIVGKDESVEVPSVGGRPPRSLQRQTLAEVIEPRYTELLNLVNEEILQLQEKLRQQGVKHHLAAGIVLTGGAAQIEGLAACAQRVFHTQVRIGAPLNITGLTDYAQEPYYSTAVGLLHYGKESHLNGEAEVEKRVTASV
# notes: also called C-terminally truncated FtsA; source: E. coli C41(DE3), purified (HisTrap, SUMO cleavage with GST-SENP1, SEC); not shown: 6H-SUMO, N-terminal, cleaved
# B3: E. coli FtsA (EcFtsA), full length (natural protein, UniProt P0ABH0 1-420, looked up)
# chain: MIKATDRKLVVGLEIGTAKVAALVGEVLPDGMVNIIGVGSCPSRGMDKGGVNDLESVVKCVQRAIDQAELMADCQISSVYLALSGKHISCQNEIGMVPISEEEVTQEDVENVVHTAKSVRVRDEHRVLHVIPQEYAIDYQEGIKNPVGLSGVRMQAKVHLITCHNDMAKNIVKAVERCGLKVDQLIFAGLASSYSVLTEDERELGVCVVDIGGGTMDIAVYTGGALRHTKVIPYAGNVVTSDIAYAFGTPPSDAEAIKVRHGCALGSIVGKDESVEVPSVGGRPPRSLQRQTLAEVIEPRYTELLNLVNEEILQLQEKLRQQGVKHHLAAGIVLTGGAAQIEGLAACAQRVFHTQVRIGAPLNITGLTDYAQEPYYSTAVGLLHYGKESHLNGEAEVEKRVTASVGSWIKRLNSWLRKEF
# notes: FtsA, E. coli, full length; also called WT; source: E. coli C41(DE3), purified (HisTrap, chitin resin with intein cleavage, SEC); not shown: intein-CBD-12H, C-terminal, cleaved
# What was measured:
# [1] = tested on: FtsA cysteine mutant E. coli strains; assay: In vivo cysteine cross-linking, Western blot; type: cell-based, Escherichia coli; settings: Western blot against 3x HA-tag
# Description: Strains were grown to exponential phase (OD600 = 0.2-0.4) in LB from overnight cultures, and 0.9375 OD units harvested using centrifugation at 4°C. Cells were kept on ice for the duration of the experiment, unless stated otherwise. Cells were washed in 500 μl PBS and resuspended in 50 μl PBS. 1.25 μl DMSO or cross-linker (dBBr: Dibromobimane, BMOE: Bismaleimidoethane, BMB: 1,4-bismaleimidobutane or BMH: Bismaleimidohexane) in DMSO (20 mM stock) were added. Samples were incubated for 10 min and quenched by adding 1 μl 2-ME (1.43 M stock in MPW). Cells were resuspended in 50 μl lysis buffer [1 mM EDTA (pH 7.4), 14.3 mM 2-ME, cOmplete EDTA-free Protease Inhibitor Cocktail (Roche), 0.25 U/μl Benzonase (Merck) and 0.5 U/μl ReadyLyse Lysozyme (Lucigen) in B-PER (ThermoFisher)]. Samples were incubated at RT for 5 min. 50 μl of 2x SDS sample loading buffer supplemented with 3 % v/v 2-ME were added. Samples were incubated at 95°C for 5 min, and the equivalent of 0.1875 OD units of cells was analysed by SDS-PAGE. Western blotting was performed using a Trans-Blot turbo (BioRad) with the corresponding Midi 0.2 μm PVDF transfer pack. Blots were run at 25 V and 2.5 A for 7 min. Membranes were blocked in PBS + 5 % milk for 30-40 min, washed in PBS and incubated with anti-HA-Peroxidase antibody (Roche 12013819001) (1/1000 in PBST + 5 % milk) at RT for 1-1.5h. Membranes were washed thoroughly with PBST, developed using the ECL Prime Western blotting detection kit (Amersham/Cytiva) and imaged on a Gel DocTM XR+ (Bio-Rad). Presented images were contrast-adjusted for display purposes.
# [2] = target: Vibrio maritimus FtsA residues 1-396 (VmFtsA^1-396) (Vibrio maritimus); assay: SPR; Biacore T200, FtsA immobilised on CM5 chip by amide coupling (2000-7800 RU), FtsN peptides injected 120 s in 1:2 dilution series; binding buffer (50 mM HEPES/KOH, 100 mM KAc, 5 mM MgAc2, pH 7.7); equilibrium response fitted to a single-site model
# [3] = target: Vibrio maritimus FtsA residues 1-396 (VmFtsA^1-396) (Vibrio maritimus); assay: crystal structure; co-crystallisation of VmFtsA^1-396 at 3 mg/ml with 2 mM ATP and 0.353 mM VmFtsN^1-29; crystallisation at pH 8.5
# [4] = target: VmFtsN^1-29-C-Atto 495 (Vibrio maritimus); assay: fluorescence polarisation; C-terminally truncated FtsA titrated (1:2 dilution series) into 20 nM Atto 495-labelled FtsN peptide; binding buffer with 0.05 % v/v Tween-20, RT; two-step model
# [5] = target: T1, FtsA (Escherichia coli, UniProt P0ABH0); assay: SPR, EcFtsN^1-32 truncations and mutations binding to immobilised FtsA; settings: SPR equilibrium response; peptide 1:2 dilution series from 20 μM; mean ± SEM (n ≥ 2 for each construct); asterisk: maximum response fixed during fitting, approximate values; ND: not determinable; read-out: SPR K^eqd
# T1 construct: made in house; host or cells: E. coli C41(DE3)
# Description: SPR was performed using a Biacore T200 using CM5-sensor chips (Cytiva). Reference control and analyte channels were equilibrated in binding buffer. […] After reference and buffer signal correction, sensogram data were fitted using Prism 8.0 (GraphPad). Equilibrium response (Req) data were fitted to a single-site interaction model to determine Kd: (1) Req=(CRmax/C+Kd)+B, where C is the analyte concentration and Rmax is the maximum response at saturation and B is the background resonance.
# [6] = target: T2, Vibrio maritimus FtsA residues 1-396 (VmFtsA^1-396) (Vibrio maritimus); assay: FP; two-step model, first transition (FtsN binding)
# T2 chain: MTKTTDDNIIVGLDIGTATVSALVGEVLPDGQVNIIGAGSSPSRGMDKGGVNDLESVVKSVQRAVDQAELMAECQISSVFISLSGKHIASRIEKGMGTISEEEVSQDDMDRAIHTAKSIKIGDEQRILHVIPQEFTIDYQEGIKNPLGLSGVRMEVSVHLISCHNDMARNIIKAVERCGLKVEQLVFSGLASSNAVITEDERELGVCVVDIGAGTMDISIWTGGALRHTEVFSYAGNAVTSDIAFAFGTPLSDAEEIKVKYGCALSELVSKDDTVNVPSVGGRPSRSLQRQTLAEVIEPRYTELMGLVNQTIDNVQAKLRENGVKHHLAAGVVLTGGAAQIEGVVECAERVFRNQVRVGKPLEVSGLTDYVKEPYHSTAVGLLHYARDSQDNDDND
# [7] = target: T2, Vibrio maritimus FtsA residues 1-396 …; assay: AUC; two-step model, first transition (FtsN binding)
# [8] = target: T2, Vibrio maritimus FtsA residues 1-396 …; assay: FP; two-step model, second transition (polymerisation)
# [9] = target: T2, Vibrio maritimus FtsA residues 1-396 …; assay: AUC; two-step model, second transition (polymerisation)
# [10] = target: the molecule itself; assay: co-sedimentation; co-pelleting: truncated FtsA at 1 mg/ml (~23 μM) with half, 1-, 3-, 6- or 10-fold molar FtsN peptide in binding buffer, 20°C, 20,000x g for 10 min, SDS-PAGE of supernatant and pellet
# [11] = target: the molecule itself; assay: cryo-EM with 2D classification; EcFtsA at 0.15 mg/ml with 1 mM ATP on lipid monolayer, without FtsN peptide
# [12] = ftsA^3x HA, Q155C mutant, exponential phase cells in PBS on ice, 10 min
molecule,measurement,setting,value
"O=C1C=CC(=O)N1CCCCN1C(=O)C=CC1=O [BMB, 1,4-bismaleimidobutane]","Covalent FtsA dimer after in vivo cross-linking, in words",[1]; [12],FtsA dimers can be detected
"Vibrio maritimus FtsN cytoplasmic peptide, residues 1-29 (VmFtsN^1-29)",fold weaker than the EcFtsA^1-405-EcFtsN^1-32 interaction,[2],3 fold
Vibrio maritimus FtsA residues 1-396 (VmFtsA^1-396) (domain or fragment),stoichiometry N,[3],4
same,fold weaker for the first binding event than EcFtsA^1-405 with FtsN^(1-32-C-Atto 495),[4],4 fold
"O=C1C=CC(=O)N1CCN1C(=O)C=CC1=O [BMOE, bismaleimidoethane]","Covalent FtsA dimer after in vivo cross-linking, in words","[1]; double cysteine mutants ftsA^3x HA, P98C, S118C and ftsA^3x HA, E199C, S252C",Signal for covalent FtsA dimers can be detected for both double cysteine mutants
same,"Covalent FtsA dimer after in vivo cross-linking, in words",[1]; [12],but not with BMOE
"MAQRDYVRRSQPAPSAASASTSRKKQRNLPAV [EcFtsN^1-32, ΔRK2]",Kd,[5],~166 µM
"MAQRDYVRRSQPAPSRRKKSTSASAQRNLPAV [EcFtsN^1-32, ΔRK3]",Kd,[5],~80.6 µM
"O=C1C=CC(=O)N1CCCCCCN1C(=O)C=CC1=O [BMH, bismaleimidohexane]","Covalent FtsA dimer after in vivo cross-linking, in words",[1]; [12],FtsA dimers can be detected
"Cc1c(CBr)n2c(CBr)c(C)c(=O)n2c1=O [dBBr, dibromobimane]","Covalent FtsA dimer after in vivo cross-linking, in words","[1]; ftsA^3x HA, D123C mutant, exponential phase cells in PBS on ice, 10 min",Signal for a FtsA dimer can be detected
B1,Kd,[6],0.062 µM
same,Kd,[7],0.018 µM
same,Kd,[8],10 µM
same,Kd,[9],55 µM
B2,binding result,[10],binds
B3,stoichiometry N,[11],13 and 12

# — article PMC7613929 (Nature microbiology, 2022)
